Measured values from patent US9273099 (Dana-Farber, dated 2016).
Values belong to the molecule of their own block, whether it stands above or below them. Where no end group is shown, it is not given here. The star is where a group is joined. FITC = O=C1OC2(c3ccc(O)cc3Oc3cc(O)ccc32)c2ccc(NC(=S)*)cc21; βAla = NCCC(=O)O

Columns and labels:
[1] = biological target: C-terminal deleted GST-BCL-2 (UniProt P10415); assay: direct fluorescence polarization
[2] = biological target: C-terminal deleted GST-BCL-2 (UniProt P10415); assay: direct fluorescence polarization, 25 nM fluoresceinated peptide with GST-BCL2 25-1000 nM
[3] = biological target: C-terminal deleted GST-BCL-2 (UniProt P10415); assay: fluorescence polarization binding
[4] = biological target: C-terminal deleted GST-BCL-2 (UniProt P10415); assay: fluorescence polarization, displacement of prebound FITC-BID BH3 from BCL-2
[5] = biological target: C-terminal deleted GST-BCL-2 (UniProt P10415); assay: fluorescence polarization competitive binding, FITC-BID BH3 as competitor
[6] = biological target: C-terminal deleted GST-BCL-2 (UniProt P10415); assay: fluorescence polarization, displacement of FITC-BID BH3 from BCL-2
[7] = biological target: C-terminal deleted GST-BCL-2 (UniProt P10415); assay: fluorescence polarization direct binding
Full-length BAX protein = biological target: T1, Full-length BAX protein (UniProt Q07812 1-192, limits assumed); assay: BAX fluorescence polarization direct binding assay
T1 construct: mature
T1 sequence (Q07812 whole entry): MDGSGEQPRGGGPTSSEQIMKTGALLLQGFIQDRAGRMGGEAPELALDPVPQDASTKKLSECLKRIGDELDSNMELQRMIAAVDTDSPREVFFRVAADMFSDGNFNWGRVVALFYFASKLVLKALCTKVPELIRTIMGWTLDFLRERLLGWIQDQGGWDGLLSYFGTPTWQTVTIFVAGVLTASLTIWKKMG

fold enhancement in binding affinity against unmodified BID BH3 [1]: > 6 fold
fold enhancement in binding affinity against unmodified BID BH3 peptide [1]: 6 fold
Kd [2]: 38.8 nM
Molecule: FITC-SAHB3BIDA (peptide)

Kd [2]: 483 nM
Molecule: FITC-SAHB3BID(G→E)A (peptide)

Kd [3]: 41 nM
IC50 [4]: 173 nM
Molecule: BAD BH3 domain peptide (from UniProt Q92934 103-127)

fold drop against the 23-mer SAHB3BIDB [5]: > 6 fold
Molecule: SAHB3BID(tr)B (16-mer) (peptide)

IC50 [6]: 62 nM
fold increase in displacement potency against unmodified BID BH3 peptide [6]: > 13 fold
Molecule: SAHB3BIDA (unlabeled) (peptide)

Kd [7]: 220 nM
binding result (Full-length BAX protein): no binding
B1: FITC-labeled unmodified BID BH3 peptide (peptide, UniProt P55957 80-101, looked up)
peptide: {FITC-βAla}-EDIIRNIARHLAQVGDSMDRSI
notes: domain: BH3; also called FITC-BID BH3; FITC-labeled BID BH3 peptide
